Measured values: patent US20170322229A1, “HIGH AFFINITY VITAMIN D3 BINDING PROTEINS” (UNIVERSITY OF WASHINGTON, priority 2015, published 2017)

Experiments:
[1] = Yeast surface display and flow cytometry binding/titration against 25-D3; conditions: for Kd: yeast surface display, 25-D3
Description: We discovered another binder for 25-D3, referred to here as CDL2. […] It was further evolved to investigate and improve its specificity and affinity. To test a broader number of mutants, CDL2 was optimized using ep-PCR as well as small computationally guided library. The computationally guided library was constructed by docking the ligand into the binding site and optimizing the interactions between 25-D3 and the protein using ROSETTA®. To increase the sampling of the ligand, short MD simulations were performed to make small perturbations of the backbone. These computational variants, as well as variants generated via error prone mutagenesis, were expressed on yeast and sorted via fluorescence activated cell sorting. Individual designs sequenced from various rounds of mutagenesis and sorting were sequenced during the evolution to inform further design and mutagenesis strategies. One evolved variant, CDL2.1, incorporated 10 mutations scattered around the protein. Another evolved variant CDL2.2 is the most advanced variant from the directed evolution efforts.
(§1) Binding activity yeast surface display and flow cytometry, according to methods previously described by Wittrup et al.

[2] = Yeast surface display and flow cytometry titration against vitamin D3; assay type: binding; conditions: for specificity for 25-D3 over vitamin D3: preference for 25-D3 over non-hydroxylated vitamin D3
Description: as §1

[3] = Approximate Kd summary (Table 4) / measured binder ranking, method not stated; assay type: binding; conditions: Ligand Target 25-hydroxycholecalciferol
[4] = Fluorescence polarization binding of 25-D3; conditions: read-out: Approximate Kd

Molecule | Kd ([1]; read-out: Approximate Kd) [µM] | specificity for 25-D3 over vitamin D3 [2] | Kd [3] [µM] | Kd ([1]; read-out: Kd) [µM] | Kd [4] [µM] | binding signal for 25-D3 on yeast ([1]; yeast display and flow cytometry, biotinylated 25-D3) | Kd ([2]; yeast surface display, vitamin D3, read-out: Approximate Kd) [µM]
CDL1.1: evolved variant of CDL1 with mutations P46S, R55A, H68P, G136V; truncated as well as mutated from 6234 (protein) NLYFQGHMNAKEILVHALRLVENGDARGFCDLFHPEGVMEFPYAPSGYKTRFEGAETIWAHMRLFPEPLTIRFTDVQFYETADPDLAIGEFHGDGVATVSGGKLAQDFISVLRTRDGQILLSRIFWNPLRHLEALV | ~0.229 | about two fold over CDL1 | 0.229 | – | – | – | –
CDL1: designed 25-D3 binder based on scaffold PDB ID 1Z1S, a putative isomerase; 8 mutations from 1Z1S (protein) SGREQGHMNAKEILVHALRLVENGDARGFCDLFHPEGVMEFPYAPPGYKTRFEGRETIWAHMRLFPEHLTIRFTDVQFYETADPDLAIGEFHGDGVATVSGGKLAQDFISVLRTRDGQILLSRIFWNPLRHLEALGGVEAAAKIVQGA | – | did not show a significant preference | 1.3 | ~2 | – | – | –
CDL2.2: slightly truncated from HH35.v1/CDL2.1; most advanced variant from the directed evolution efforts (protein) QSAKEAIEAALADFVKVYNSKDAAGVASKYMDDAAIFPLDMAPVDGRQNIQKLWQGLMDMGVSEPKFTTLNVQKSGDFAFESGSFSLKGPGKDSKLVGIAGIYVEVWRKGQDGGWKLYRTIANLGP | – | – | – | – | ~0.188 | – | –
CDL2: designed 25-D3 binding protein based on scaffold PDB ID 3HX8, a putative ketosteroid isomerase (protein) GQSAKEAIEAALADFVKAYNSKDAAGVASKYMDDAAIFPLDMARVDGRQNIQKLWQGLMDMGVSELKLTTLDVQESGDFAFESGSFSLKGPGKDSKLVDVAGKYVVVWRKGQDGGWKLYRTISNLDPAK | – | – | 2.1 | – | ~2.1 | exceptionally strong signal | –
CDL2.1: evolved variant of CDL2 incorporating 10 mutations scattered around the protein (protein) DQSAKEAIEAALADFVKVYNSKDAAGVASKYMDDAAIFPLDMAPVDGRQNIQKLWQGLMDMGVSEPKFTTLNVQKSGDFAFESGSFSLKGPGKDSKLVDIAGIYVEVWRKGQDGGWKLYRTIANLDPAK | ~0.319 | – | 0.319 | – | – | – | ~1.9
